Laboratory results taken from patent publication US7977317B2, “Compositions and methods for modulating blood-brain barrier transport” (Raptor Pharmaceutical Inc., priority 2001, dated 2011).

Key:
[1] = system: astrocytes and astrocytoma cells; assay: Uptake of [125I]-p97 in rat astrocytes and astrocytoma cells; format: cell-based; conditions: 50 nM p97, 2 h at 37° C. (FIG. 24)
Procedure: FIG. 24. Uptake of p97 in rat astrocytes and astrocytoma cells. Cells were grown in monolayer in six-multiwell microplates at 37° C. under 5% CO2. Uptake of [^125I]-p97 was measured at 37° C. for 2 h in astrocytes and astrocytomas. The incubation medium contained [^125I]-p97 and a final concentration of 50 nM p97 in Ringer/Hepes solution. After incubation, the cell monolayer was washed three times with cold Ringer/Hepes solution. Triton X-100 0.1% was added and the [^125I]-p97 uptake was assessed in the Triton X-100 soluble fraction by TCA precipitation. Results represent means±SD (n=3, Astro; n=6, CTX and RG2; n=9, C6).
Uptake of [^125I]-p97. Cells were grown in monolayer in six-multiwell microplates at 37° C. under 5% CO2. Uptake of [^125I]-p97 was measured at 37° C. for 2 h in astrocytes and astrocytomas. The incubation medium contained [^125I]-p97 and a final concentration of 50 nM P97 in Ringer/Hepes solution. The uptake of [^125I]-p97 was performed in presence or in absence of 5 μM cold-P97. After incubation, the cell monolayer was wash three times with cold Ringer/Hepes solution. Triton X-100 0.1% was added and the [^125I]-p97 uptake was assessed in the Triton X-100 soluble fraction by TCA precipitation.

[2] = In situ brain perfusion with capillary depletion; format: in vivo; conditions: mice, 10 min perfusion
Procedure: FIG. 11 examines the accumulation and transcytosis of p97. FIG. 11a, of [^125I]-p97, [^125I]-BSA and [^125I]-holo-transferrin one hour after i.v. injection. The radioactivity in brain was compared between the three compounds. (n=3); FIG. 11b, Accumulation of p97 and transferrin into the mouse brain parenchyma. In situ brain perfusion was performed with human [^125I]-p97 or [^125I]-holo-transferrin at a final concentration of 10 nM via a catheter inserted in the right common carotid artery. The volume of distribution (VD) of [^125I]-proteins were obtained in the whole brain homogenate (white bars), in brain capillaries (solid bars) and in brain parenchyma (hatched bars) after isolation of the right hemisphere and capillary depletion. Results were obtained for p97 (n=10) and for holo-transferrin (n=6); FIG. 11c, Transcytosis of p97 across BBCEC monolayers. Transcytosis experiments were performed 37° C. (open circles) and 4° C. (closed circles) with BBCEC monolayers. […] Apical-to-basal and basal-to-apical transport of [^125I]-p97 (25 nM) was measured for 2 hrs at 37° C. At the end of the experiment, [^125I]-p97 was assessed in the lower or upper chambers of each well by TCA precipitation (n=4).
A. Brain uptake and in situ brain perfusion. […] The serum and brain samples were collected and the levels of radioactivity were measured. […]

BBCECs = assay: Binding of [125I]-p97 to BBCECs with saponin treatment (Scatchard); parameters: species or system bovine; conditions: 200-fold molar excess, after saponin treatment (FIG. 12b)
Procedure: FIG. 12 illustrates the Binding of p97 to BBCE cells. FIG. 12a, p97 binding experiments were performed with BBCECs that were either pre-incubated in Ringer-Hepes solution or pre-treated with saponin. BBCECs were then incubated for 2 hrs at 4° C. with [^125I]-p97 (25 nM). At the end of the incubation, the filters were gently washed with cold PBS and then the radioactivity associated with the ECs was quantified; FIG. 12b, The binding of [^125I]-p97 was also performed with increasing concentrations of unlabelled p97 following saponin treatment. The results were expressed as the percentage of the [^125I]-p97 binding measured in the absence of unlabelled p97; FIG. 12c, The results were also transformed with a Scatchard plot and expressed as the ratio of bound p97/free p97 as a function of the bound p97 (n=5).
Transcytosis and binding experiments. […] At the end of the experiment, [^125I]-p97 was quantitated in 500 μl of the lower chamber of each well by TCA precipitation. We also measured p97 in 50 μl of the lower chamber of each well by SDS-PAGE according to the method of Laemmli (Laemmli, U.K. Nature; 227: 680-685 (1970)). Proteins were separated on 7.5% acrylamide gels, stained with Coomassie Blue, dried and analysed by densitometry. […] After 2 hrs at 4° C., ECs were gently washed, and the [^125I]-p97 attached to the ECs was quantified in a liquid scintillation counter. […]

B1: p97: recombinant human melanotransferrin (p97), provided by Synapse Technologies (protein, UniProt P08582 20-709, looked up)
Melanotransferrin: GMEVRWCATSDPEQHKCGNMSEAFREAGIQPSLLCVRGTSADHCVQLIAAQEADAITLDGGAIYEAGKEHGLKPVVGEVYDQEVGTSYYAVAVVRRSSHVTIDTLKGVKSCHTGINRTVGWNVPVGYLVESGRLSVMGCDVLKAVSDYFGGSCVPGAGETSYSESLCRLCRGDSSGEGVCDKSPLERYYDYSGAFRCLAEGAGDVAFVKHSTVLENTDGKTLPSWGQALLSQDFELLCRDGSRADVTEWRQCHLARVPAHAVVVRADTDGGLIFRLLNEGQRLFSHEGSSFQMFSSEAYGQKDLLFKDSTSELVPIATQTYEAWLGHEYLHAMKGLLCDPNRLPPYLRWCVLSTPEIQKCGDMAVAFRRQRLKPEIQCVSAKSPQHCMERIQAEQVDAVTLSGEDIYTAGKTYGLVPAAGEHYAPEDSSNSYYVVAVVRRDSSHAFTLDELRGKRSCHAGFGSPAGWDVPVGALIQRGFIRPKDCDVLTAVSEFFNASCVPVNNPKNYPSSLCALCVGDEQGRNKCVGNSQERYYGYRGAFRCLVENAGDVAFVRHTTVFDNTNGHNSEPWAAELRSEDYELLCPNGARAEVSQFAACNLAQIPPHAVMVRPDTNIFTVYGLLDKAQDLFGDDHNKNGFKMFDSSNYHGQDLLFKDATVRAVPVGEKTTYRGWLGLDYVAALEGMSSQQC
- Specific uptake of p97 in astrocytoma cells over astrocytes [1]: greatly increased
- Apparent VD of p97 in brain parenchyma relative to transferrin [2]: 8.8 fold
- Apparent VD in the brain parenchyma ([2]; 10 nM [125I]-protein (FIG. 11b)): 17.2 ml/100 g
- Inhibition of radiolabel ([125I]-p97) binding by unlabelled p97 (BBCECs): approximately 50%
